Measurements as given in US20030082561, “Zinc finger domain recognition code and uses thereof” (published 2003).

Biological target: AL1 ZFP (Clone 1) (artificial)
Experiment: EMSA; significant binding at 14-35 nM; text prints SEQ ID NO 27 for the bound probe, apparently meaning the G (wild-type) probe SEQ ID NO 26
Conditions: tags: three Sp1C domain 2 framework fingers, pET21-a, E. coli BL21(DE3)pLysS; label: 5'-32P

Sequence of AL1 ZFP (Clone 1) (artificial) (chain, as listed by the source): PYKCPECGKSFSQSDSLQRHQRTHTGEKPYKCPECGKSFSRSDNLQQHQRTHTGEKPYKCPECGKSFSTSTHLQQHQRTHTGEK

B1: AL1 probe G (wild type) (dsDNA)
DNA 1: TATATATAAGTAAGGTAGTATATATA
DNA 2: TATATATACTACCTTACTTATATATA
B1: binds.
